Square brackets hold non-standard residues; d marks the D form. Peptide text beside a SMILES is read from it. * marks the point of attachment. DOTA = O=C(O)CN1CCN(CC(=O)O)CCN(CC(=O)*)CCN(CC(=O)O)CC1
Assays:
[1] = Shelf-life of 177Lu-labeled ligands at room temperature (radio-HPLC); assay type: physicochemical
Description: The shelf-life of each ^177Lu-labeled ligand was monitored at room temperature up to 24 h after radiolabeling.
The shelf-lives of ^177Lu-labeled ligands were assessed at room temperature (RT) in the buffer used for labeling, as described above. For the analysis, 5 μL was withdrawn at desired time points (0, 1, 2, 4, and 24 h) from the stock solution and mixed with 50 μL of the Ca-DTPA solution. 20 μL of this mixture was withdrawn and injected in RP-HPLC.

[2] = assay type: in vitro ADME, human; conditions: human, plasma
Description: Representative radiochromatograms are provided in Figure S25 for ^177Lu-1, ^177Lu-2, and ^177Lu-7. This included ^177Lu-9 despite its fatty acid chain.
(§1) Figure 3 Stability of the ^177Lu ligands in human plasma at 37 °C, expressed as % of intact radioligand over time, assessed by radio-HPLC. The % of plasma protein binding (PPB) after 60 min incubation is provided in parenthesis and it is expressed as the % of radioligand in the protein fraction (pellet) versus the total activity in the plasma. TEXT PRINTED IN THE PICTURE: ^177Lu-1: PPB: 35% | ^177Lu-2: PPB: 22% | ^177Lu-5: PPB: 42% | ^177Lu-6: PPB: 38% | ^177Lu-7: PPB: 39% | ^177Lu-9: PPB: 37%
To 1 mL of fresh human plasma, previously equilibrated at 37 °C, 500 pmol (8–10 MBq) of each ^177Lu-labeled ligand was added. The mixture was incubated at 37 °C for different time points (0, 15, 30, 60, and 120 min). At each time point, a 100 μL aliquot was removed and treated with 1.5 excess (v/v) of acetonitrile, to precipitate plasma proteins, followed by centrifugation for 5 min at 3500 rpm. The supernatant was collected and the process of protein precipitation was repeated. Afterward, 100 μL from the supernatant was taken, diluted with water at a ratio of 1:10 (v/v), and injected into radio-HPLC. The radioligand (in)stability was assessed by quantifying the percentage of intact radioligand over time.

[3] = assay type: in vitro ADME; conditions: human, plasma, plasma protein binding (PPB)
Description: as §1
For the determination of plasma protein binding (PPB), 100 μL from the plasma incubated with the ^177Lu ligand was removed and measured in a γ-counter (total radioactivity). Protein precipitation and separation followed, as described above. The supernatant and the protein pellet were then measured in a γ-counter. The percentage of plasma protein binding was calculated as the ratio between the protein-bound radioactivity and the total radioactivity in the plasma.

Ghost-CXCR4 cells = test: Cellular uptake and distribution in Ghost-CXCR4 cells; assay type: cell-based, human; conditions: 37 °C, 60 min
Description: Figure 4 In vitro assessment in Ghost-CXCR4 cells at 37 °C. […] Each experiment was performed in triplicate. Results are means ± SD [% of applied activity] from a minimum of two separate experiments. […] Cellular uptake was interrupted at 15, 30, and 60 min by removing the medium and washing twice with ice-cold PBS. The cell surface-bound radioligand was obtained by washing cells twice with ice-cold glycine buffer (pH 2.8) followed by a collection of the internalized fraction after treating the cells with 1 M sodium hydroxide (NaOH). The activity in each fraction was measured in a γ-counter. […] The results were expressed as a percentage of the applied radioactivity after subtracting the nonspecific uptake.

Jurkat xenografts = test: in vivo; conditions: female, athymic nude-Foxn1^nu/Foxn1^+, mouse, iv, 200 pmol, 1 h
Description: Quantification of the total body distribution of ^177Lu-7 and ^68Ga-7 was performed in Jurkat xenografted mice after intravenous injection of 100 μL, 200 pmol, with […], respectively (n = 5). The mice were sacrificed at 1 h p.i. ^177Lu-7 and ^68Ga-7 accumulated mainly in the kidneys (83.1 ± 25.5 and 75.6 ± 30.3%IA/g, respectively, p = 0.59), liver (5.19 ± 1.08 and 4.08 ± 1.05%IA/g, respectively, p = 0.07) and tumor (2.25 ± 0.43 and 2.24 ± 0.57%IA/g, respectively, p = 0.97), as already seen in the SPECT/CT and PET/CT images (Figures 6 and 7). Uptake in the tumor was lower than for the kidneys and liver but higher as in all other tissues investigated. […] The uptake seen in the liver might be attributed, at least partially, to the fact that CXCR4 is constitutively expressed in the sinusoidal endothelial cells of the murine liver[38] or could be related to another yet-unknown mechanism previously reported for other CXCR4-targeting probes.[11],[39] Regretfully, there are no direct measurements available for the affinity of ^177Lu-7 with the murine CXCR4 (mCXCR4). This is relevant for assessing its total body distribution. However, we have shown that EPI-X4 and EPI-X4 derivatives are active in mouse models of inflammatory diseases[22],[25] and cancer.[40] More specifically, EPI-X4 derivatives such as JM#21 reduced immune cell influx in lungs of mice suffering from allergic asthma or reduced skin inflammation in a murine model of atopic dermatitis upon topical administration. […] Thus, we speculate that the DOTA conjugate of JM#173 (ligand-7) also cross-reacts to the mCXCR4. […] Last, but not the least, the uptake in the kidneys was predominant, and given the highly hydrophilic character of ^177Lu-7, is attributed, at least partially, to its excretion via this path.
The experimental protocol involving animals was approved by the Veterinary Office (Department of Health) of the Cantonal Basel-Stadt (Approval No. 30515) in accordance with the Swiss regulations for animal treatment. Female athymic nude-Foxn1^nu/Foxn1^+ mice (Envigo, The Netherlands), 4–6 weeks old, were injected subcutaneously with 10^7 Jurkat cells in a 200 μL (1:1) mixture of PBS and Matrigel (CorningMatrigelMembrane matrix, Fischer Scientific, Germany) on the right shoulder. The tumors were allowed to grow for 3–4 weeks before commencement of the experiments.
Quantitative biodistribution studies of ^177Lu-7 (100 μL, 200 pmol, 0.8–1 MBq) and ^68Ga-7 (100 μL, 200 pmol, 2–3 MBq) were performed after intravenous injection of the radioligand via the tail vein on Jurkat xenografts. […] 1 h after injection of the radioligand, mice were sacrificed, organs of interest and blood were collected, rinsed of excess blood, blotted dry, weighed, and counted in a γ-counter. The samples were counted against a suitable diluted aliquot of the injected solution as the standard and the results are expressed as percentage injected activity per gram of tissue (%IA/g). Statistical analysis between selected organs was performed by Welch’s t-test and p values <0.05 were considered statistically significant.

CC[C@@H](C)[C@@H](N)C(=O)N[C@@H](CC(C)C)C(=O)N[C@@H](CCCNC(=N)N)C(=O)N[C@@H](Cc1c[nH]c2ccccc12)C(=O)N[C@@H](CO)C(=O)N[C@@H](CCCNC(=N)N)C(=O)N[C@@H](CCCCN)C(=O)N[C@@H](CCCCNC(=O)CN1CCN(CC(=O)O)CCN(CC(=O)O)CCN(CC(=O)O)CC1)C(N)=O [^177Lu-7, metal not drawn] (H-[dI]LRWSRKK(DOTA)-NH2; N-terminus assumed)
radiochemical purity (%) ([1]; 0 h after radiolabeling): 98 ± 1% | radiochemical purity (%) ([1]; 1 h after radiolabeling): 95 ± 0% | radiochemical purity (%) ([1]; 2 h after radiolabeling): 94 ± 0% | radiochemical purity (%) ([1]; 4 h after radiolabeling): 88 ± 3% | metabolic stability in plasma (in words) [2]: high metabolic stability in plasma up to 4 h | fraction unbound at 60 min [3]: 0.61 | cellular uptake (% of the applied activity) (Ghost-CXCR4 cells): 7.90 ± 1.48% | uptake in adrenal (Jurkat xenografts): 1.09 ± 0.42 % IA/g
